According to paper PMC5307791, “Thermus thermophilus as source of thermozymes for biotechnological applications: homologous expression and biochemical characterization of an α-galactosidase” (Microbial Cell Factories, 2017):

Experiments:
[1] = target: α-galactosidase from Thermus thermophilus HB27 (TtGalA), N-terminally His-tagged, expressed in T. thermophilus HB27::nar (Thermus thermophilus HB27); assay: SEC-MALS; size-exclusion chromatography (S200 16/60) with Mini DAWN Treos triple-angle light scattering and QELS; 500 µg of protein (1 mg/ml) loaded; 0.5 ml/min; buffer A (50 mM Tris-HCl pH 7.5, 500 mM NaCl)
purified protein = substrate: O=[N+]([O-])c1ccc(O[C@H]2O[C@H](CO)[C@H](O)[C@H](O)[C@H]2O)cc1; assay: purified protein; conditions: 90 °C, pH 6.0, 50 mM sodium phosphate

stoichiometry N [1] | Molecule | Km (purified protein) | Vmax (purified protein) | kcat (purified protein)
6 | α-galactosidase from Thermus thermophilus HB27 (TtGalA), N-terminally His-tagged, expressed in T. thermophilus HB27::nar (enzyme) | – | – | –
– | TtGalA (Thermus thermophilus HB27) (protein) MRLNLGGAEVFLRAEGLEEAPGGVRLWGREVRVFPPFPAKGFFRHGWQSWSLAAWVDPAQAPTPLLPEARRPQADDPFLLEAGAWWGSGVGALRGPDGRALLLGALDLGARVLGREDLLLGRYAGEGGAWFLAHGPEEEVFAAYAQLLPRRLSGRPPRVWCSWYSFYTRIGEDLLLRVLDEVAAFSFEVFQIDDGWQRALGDWEPNDRFPRGMAFLAERIRERGLRPGLWFAPFLVTADSPLFQMRPDWVLRDGEGRPVRAGFNWGRPLYALDAGNEEVVEWAADLVRKALAWGYDYLKLDFLYAAALPGAEGEARYRRAMARLREAAGEAYLLFCGAPVLASLGLADGLRVGPDVAPYWDNEERSFWLADPTGPGLRNALRSTLHRLWLMENVHVDPDVVYFRTRFNLLSPEEMRLQEALAHFTGFKATSDPPSWLLPEEKGRLEAFLAREVPVRRLGPYRFRVGEEEVDYAPLL | 690 ± 17 µM | 338 µmol/min/mg | 710 s⁻¹
